Source: publication PMC4861216
Several values for one entry are separate records, joined by “and”; a condition that tells them apart may be missing. Equal entries are not always repeated.

Target: protamine-oligonucleotide nanoparticles (proticles) (salmon)
Assay: co-sedimentation

Substance: apolipoprotein A-I (from UniProt P02647 19-267) (natural protein)
- percent of added apoA-I bound (5 ug apoA-I/10 ug ON): 80%
- stoichiometry N (apoA-I molecules per nanoparticle): 14000 and 15000
